From the supplement of paper PMC12667976

B1: library; numbered along this chain (parent)
chain: MATDAALRRLLRLHRTEIAVAVDSAFPLLHALADHDVVPEDKFQETLHLKEKEGCPQAFHALLSWLLTQDSTAILDFWRVLFKDYNLERYGRLQPILDSFPKDVDLSQPRKGRKPPAVPKALVPPPRLPTKRKASEEARAAAPAALTPRGTASPGSQLKAKPPKKPESSAEQQRLPLGNGIQTMSASVQRAVAMSSGDVPGARGAVEGILIQQVFESGGSKKCIQVGGEFYTPSKFEDSGSGKNKARSSSGPKPLVRAKGAQGAAPGGGEARLGQQGSVPAPLALPSDPQLHQKNEDECAVCRDGGELICCDGCPRAFHLACLSPPLREIPSGTWRCSSCLQATVQEVQPRAEEPRPQEPPVETPLPPGLRSAGEEVRGPPGEPLAGMDTTLVYKHLPAPPSAAPLPGLDSSALHPLLCVGPEGQQNLAPGARCGVCGDGTDVLRCTHCAAAFHWRCHFPAGTSRPGTGLRCRSCSGDVTPAPVEGVLAPSPARLAPGPAKDDTASHEPALHRDDLESLLSEHTFDGILQWAIQSMARPAAPFPS

Variants of: B1
Assay: AIRE transcriptional activation functional score (insulin promoter-GFP; nonsense median 0, synonymous median 1) (normalised score); higher = higher AIRE activity (more reporter activation)
Settings: with insulin promoter-GFP reporter in HEK293
Description: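 Deep mutational scan of full-length human AIRE (codon-optimized cDNA, DT-POPCode NNN libraries over three regions) integrated at a Bxb1 landing pad in HEK293 cells carrying an insulin core promoter-GFP reporter at a Flp-In site. Cells were sorted for the top 10% GFP about 14 days after transfection. Variant frequency log-ratios (select vs non-select, TileSeq) were rescaled so that the nonsense median is 0 and the synonymous median is 1, then averaged over biological replicates.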

AIRE transcriptional activation functional score: each site, then its substitutions
D70: N 0.992 | P -0.549 | G 0.895 | I 0.395 | A -0.203 | V -0.0452 | L -0.362 | F -0.152 | M -0.516 | C 0.296 | E 0.94 | H -0.0845 | R 0.35 | K 2.05 | T 0.428 | Q 0.436 | Y -0.642 | S 2.47 | W -0.512
L75: Y 1.52 | I 1.13 | F 0.688 | M 0.71 | A 0.288 | H 0.935 | N 1.01 | P -0.233 | V 1.31 | T 1.46 | R 0.518 | W 2.01 | Q 0.0287 | D -0.0941 | E -0.603 | G 0.82 | C 0.732 | K 0.732 | S 0.842
T72: I 0.104 | F 0.964 | G 0.0759 | K 1.59 | P 0.606 | L 0.84 | R 0.0611 | V 1.28 | C 0.562 | S 0.667 | H 1.39 | W 0.0941 | Y 0.224 | D 2.22 | N 1.15 | A 1.01
F59: V 0.903 | Q -1.19 | T 0.102 | R -0.191 | S 0.2 | Y -0.0924 | N -0.0761 | P 0.0711 | W 0.208
A61: W 1.46 | M 0.552 | S 1.48 | E 0.619 | P -0.68 | V 0.328 | F 0.26 | C -0.153 | D 0.176 | Q 0.472 | G 0.214 | Y -0.0286 | N 0.59 | L -0.166 | I -0.471 | R 0.646 | H 1.26 | T 0.573
S64: R -0.473 | N 0.278 | Y 0.513 | A -0.0317 | D -0.252 | G 0.447 | P 0.795 | T 0.485 | K -0.37 | F 0.0385 | M -0.0813 | Q -0.939 | I -0.0655 | W 0.42 | H 0.583 | C -0.513 | L -0.114 | V -0.0585 | E -0.72
A73: P 0.676 | V 1.1 | S 0.179 | N -0.949 | E 0.775 | W -0.767 | D -0.0868 | I 1.33 | F 0.15 | H 2.12 | T 1.01 | Y 0.555 | L 0.61 | Q -1.02 | R 1.26 | C 0.629 | G -0.592
T68: S 0.804 | G 0.848 | Q -1.24 | P 0.108 | L 0.729 | H 0.424 | N 0.581 | C 0.77 | R 0.304 | Y 0.495 | I -0.358 | E -2.1 | V 0.624 | W -0.374 | K 0.868 | F -0.0989 | D -0.277 | A 0.312 | M 0.985
S71: D 1.61 | I 0.605 | N 0.235 | H 1.32 | Q 2.02 | C 0.858 | K 1.2 | Y 1.52 | R 0.321 | G 0.809 | A 1.08 | V 0.229 | M 0.472 | P -0.532 | T 1.05 | W -0.0187 | E 1.17 | L -0.359 | F 0.353
I74: L 0.0101 | S -0.0735 | N -0.347 | T -0.246 | D 0.058 | Y 0.19 | W 0.39 | H 0.604 | P 0.409 | G 0.496 | R -0.00714 | V 0.51 | Q 0.136 | E -0.548 | A 0.186 | K 0.384 | M 0.0325 | F -0.0221 | C 0.295
W65: V -0.0047 | K 0.535 | G 0.22 | S 0.269 | I -0.311 | P -0.233 | D -1.55 | E 0.0731 | C 0.469 | A -0.93 | T 1.03 | M -0.0554 | Y -0.365 | L 0.2 | Q -0.357 | R -0.313 | F 0.122 | N 0.316 | H 0.542
L66: E -0.037 | G -0.202 | S -0.186 | Q 0.233 | V 0.121 | C -0.733 | I 0.885 | P 0.349 | H 0.316 | A 0.62 | T -0.0651 | W 0.0325 | R -0.171 | D -0.102 | N -0.299 | F -0.101 | K -0.126 | M 0.0543 | Y 0.687
Q69: E 0.0374 | S -0.2 | W -0.383 | R 1.15 | D 0.261 | F -0.0774 | Y 0.498 | K 0.102 | L -0.119 | A 0.0258 | H -0.135 | V -0.0416 | M -0.732 | P 0.118 | T -0.236 | C 0.105 | I -0.279 | N -0.248 | G 0.383
D76: E 0.132 | L 0.535 | M 2.3 | F -0.202 | S 0.371 | T 0.0165 | G -0.331 | V 0.795 | A 0.43 | N -0.077 | W 0.516 | I 0.22 | R 0.463 | Y 0.302 | C 0.409 | H 0.235
L67: Q -0.874 | A 0.0875 | K 0.25 | Y 0.237 | S -0.0517 | V 0.638 | I 0.391 | R -0.769 | D 0.698 | H 0.742 | F -0.0388 | N 0.265 | G -0.0868 | W 0.0659 | P -0.378 | E -0.592 | C -0.405 | T -0.29 | M 0.554
F77: K 0.21 | E 0.445 | L -0.0762 | M 0.136 | D -0.0172 | H 0.528 | I 0.0486 | C 0.198 | N -0.429 | A 0.257 | G -0.0629
L62: G -0.253 | Q 0.0502 | C 0.584 | N 0.232 | D -0.0278 | Y 0.0998 | R -0.00966 | A -0.0777 | P -0.295 | M 0.558 | T -0.152 | I -0.601 | E -0.679 | V 0.0204 | K -0.404 | W 0.305 | S 0.0796 | F -0.766 | H -0.594
H60: A -0.135 | F 1.06 | R 0.0862 | C -0.27 | G 0.0323 | E -0.56 | L -0.135 | S -0.00297 | Q 0.338 | K -0.424 | P -0.793 | W 0.431 | V -0.0783 | N 0.179 | D -0.0281 | T 0.117 | Y 0.332 | I 0.216 | M 0.414
L63: W 0.381 | S -0.272 | V 0.617 | P 0.339 | R -0.0432 | D -0.402 | H -0.128 | K -0.721 | T -0.37 | Y -0.421 | F 0.298 | M -0.458 | Q -0.326 | I 0.588 | C -0.0612 | G 0.772 | A 0.181 | E -1.39 | N 0.0814
